The values below come from patent US10590168B2, “Substrates for FLT3 kinase and uses thereof” (REGENTS OF THE UNIVERSITY OF MINNESOTA, priority 2016, dated 2020).

The assay has as its target T1, FLT3 (Homo sapiens, UniProt P36888).
T1 sequence (P36888 27-993): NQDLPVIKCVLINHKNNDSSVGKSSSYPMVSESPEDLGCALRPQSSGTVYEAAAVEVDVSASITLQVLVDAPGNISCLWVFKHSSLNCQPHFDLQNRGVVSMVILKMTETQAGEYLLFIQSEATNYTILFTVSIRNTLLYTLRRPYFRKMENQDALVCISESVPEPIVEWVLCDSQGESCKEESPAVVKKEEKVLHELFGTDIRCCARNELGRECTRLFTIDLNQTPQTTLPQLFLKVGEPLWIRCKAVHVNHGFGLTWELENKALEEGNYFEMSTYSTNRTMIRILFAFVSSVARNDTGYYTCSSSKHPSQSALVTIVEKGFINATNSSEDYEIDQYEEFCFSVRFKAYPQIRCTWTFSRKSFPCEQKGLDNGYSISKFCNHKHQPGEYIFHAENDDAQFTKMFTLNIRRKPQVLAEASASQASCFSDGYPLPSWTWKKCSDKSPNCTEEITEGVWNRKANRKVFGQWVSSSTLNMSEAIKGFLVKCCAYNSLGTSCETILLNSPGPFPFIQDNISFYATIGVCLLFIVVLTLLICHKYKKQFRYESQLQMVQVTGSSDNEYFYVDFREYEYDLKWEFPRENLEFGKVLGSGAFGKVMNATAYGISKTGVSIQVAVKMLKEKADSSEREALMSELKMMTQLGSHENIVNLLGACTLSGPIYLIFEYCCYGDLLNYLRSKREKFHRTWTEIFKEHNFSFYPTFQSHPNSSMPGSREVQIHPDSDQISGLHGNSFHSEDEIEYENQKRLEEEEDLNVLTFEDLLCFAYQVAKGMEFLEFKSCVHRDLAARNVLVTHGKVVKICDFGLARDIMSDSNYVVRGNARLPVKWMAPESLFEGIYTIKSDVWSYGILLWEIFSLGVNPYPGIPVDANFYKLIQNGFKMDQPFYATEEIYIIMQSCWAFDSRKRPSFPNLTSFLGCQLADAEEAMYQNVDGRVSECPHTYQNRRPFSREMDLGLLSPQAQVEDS
Put plainly: Phosphorylation of existing peptide substrate by FLT3. It is filed as biochemical. The conditions noted are these: in the applicant's experience.

On to “FTDRLQQYISTR [Flt3tide, previously reported Flt3 substrate peptide (Böhmer & Uecker 2009)]”, for which the “phosphorylation by FLT3” value is “poorly phosphorylated”.
